Laboratory results from patent publication US20190169306A1 (UNIVERSITY OF SOUTHAMPTON, published 2019).

Target: T1, human CD27 (human, UniProt P26842 20-260)
T1 sequence (looked up): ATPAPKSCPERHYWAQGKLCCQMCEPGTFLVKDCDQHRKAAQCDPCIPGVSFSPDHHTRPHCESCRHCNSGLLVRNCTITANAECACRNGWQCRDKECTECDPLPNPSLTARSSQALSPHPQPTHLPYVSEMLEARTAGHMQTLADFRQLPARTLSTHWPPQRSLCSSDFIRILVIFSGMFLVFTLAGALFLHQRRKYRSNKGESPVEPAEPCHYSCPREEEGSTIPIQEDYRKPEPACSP
Test: cell-based or functional assay

level of CD14 on monocytes in human PBMC cultures after 48 hours (flow cytometry): 2 fold | monocyte number in human PBMC cultures after 48 hours with 5 µg/mL mAb (flow cytometry): 3 fold
B1: varlilumab (anti-human CD27 mAb) (antibody, V domains shown)
VH: QVQLVESGGGVVQPGRSLRLSCAASGFTFSSYDMHWVRQAPGKGLEWVAVIWYDGSNKYYADSVKGRFTISRDNSKNTLYLQMNSLRAEDTAVYYCARGSGNWGFFDYWGQGTLVTVSS
VL: DIQMTQSPSSLSASVGDRVTITCRASQGISRWLAWYQQKPEKAPKSLIYAASSLQSGVPSRFSGSGSGTDFTLTISSLQPEDFATYYCQQYNTYPRTFGQGTKVEIK
